Reference: EP1506972A1 (Genentech Inc., dated 2005)

Assays:
Test in all cases: competitive phage ELISA, soluble IGFBP-1 vs coated IGFBP-1
[1] = molecular target: T1, IGF-I R50A (G1S-A70V background) displayed on phage (human; bacteriophage M13)
T1 construct: not shown: Display carrier: M13 gene III protein fragment (residues 249-406) and the junction to it
T1 chain: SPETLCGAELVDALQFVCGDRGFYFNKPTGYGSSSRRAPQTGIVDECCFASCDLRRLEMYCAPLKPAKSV

[2] = molecular target: T2, IGF-I E58A (G1S-A70V background) displayed on phage (human; bacteriophage M13)
T2 construct: not shown: M13 gene III fragment (residues 249-406), the display partner, and its junction to IGF-I
T2 chain: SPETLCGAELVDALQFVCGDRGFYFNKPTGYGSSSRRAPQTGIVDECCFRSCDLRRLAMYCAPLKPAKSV

[3] = molecular target: T3, IGF-I S1G (single mutant of G1S-A70V) displayed on phage (human; bacteriophage M13, UniProt P05019 49-117)
T3 construct: not shown: Display carrier: M13 gene III protein fragment (residues 249-406) and its junction to Val70

[4] = molecular target: T4, IGF-I D45A (G1S-A70V background) displayed on phage (human; bacteriophage M13)
T4 construct: not shown: Display carrier: M13 gene III protein fragment (residues 249-406) and the junction to it
T4 chain: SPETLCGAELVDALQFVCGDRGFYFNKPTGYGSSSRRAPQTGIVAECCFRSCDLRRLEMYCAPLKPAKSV

[5] = molecular target: T5, IGF-I K68A (G1S-A70V background) displayed on phage (human; bacteriophage M13)
T5 construct: not shown: Display carrier: M13 gene III protein fragment (residues 249-406) and its junction to Val70

[6] = molecular target: T6, IGF-I R56A (G1S-A70V background) displayed on phage (human; bacteriophage M13)
T6 construct: not shown: M13 gene III fragment (residues 249-406), the display partner, and its junction to IGF-I
T6 chain: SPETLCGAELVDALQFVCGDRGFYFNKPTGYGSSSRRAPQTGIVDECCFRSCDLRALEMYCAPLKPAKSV

[7] = molecular target: T7, IGF-I S1A (G1S-A70V background) displayed on phage (human; bacteriophage M13)
T7 construct: range 249-406; the result is Ala 1

[8] = molecular target: T8, des(1-2)-IGF-I displayed on phage (human; bacteriophage M13)
T8 construct: range 249-406; Lacks positions 1 and 2

[9] = molecular target: T9, IGF-I P28A (G1S-A70V background) displayed on phage (human; bacteriophage M13)
T9 construct: not shown: Display carrier: M13 gene III protein fragment (residues 249-406) and the junction to it
T9 chain: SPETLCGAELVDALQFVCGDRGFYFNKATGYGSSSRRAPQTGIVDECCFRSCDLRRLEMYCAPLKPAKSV

[10] = molecular target: T10, IGF-I R55A (G1S-A70V background) displayed on phage (human; bacteriophage M13)
T10 construct: not shown: Display carrier: M13 gene III protein fragment (residues 249-406) and the junction to it
T10 chain: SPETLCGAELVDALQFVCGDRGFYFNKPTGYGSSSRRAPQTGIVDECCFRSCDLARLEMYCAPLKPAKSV

[11] = molecular target: T11, IGF-I L57A (G1S-A70V background) displayed on phage (human; bacteriophage M13)
T11 construct: not shown: M13 gene III fragment (residues 249-406), the display partner, and its junction to IGF-I
T11 chain: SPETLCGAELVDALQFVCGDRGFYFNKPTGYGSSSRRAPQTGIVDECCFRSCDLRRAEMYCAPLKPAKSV

[12] = molecular target: T12, IGF-I S33A (G1S-A70V background) displayed on phage (human; bacteriophage M13)
T12 construct: not shown: Display carrier: M13 gene III protein fragment (residues 249-406) and the junction to it
T12 chain: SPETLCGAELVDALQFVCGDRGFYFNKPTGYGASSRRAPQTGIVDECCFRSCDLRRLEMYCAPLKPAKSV

[13] = molecular target: T13, IGF-I G32A (G1S-A70V background) displayed on phage (human; bacteriophage M13)
T13 construct: not shown: Display carrier: M13 gene III protein fragment (residues 249-406) and the junction to it
T13 chain: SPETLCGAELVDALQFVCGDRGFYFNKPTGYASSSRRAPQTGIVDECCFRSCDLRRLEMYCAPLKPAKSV

[14] = molecular target: T14, IGF-I P63A (G1S-A70V background) displayed on phage (human; bacteriophage M13)
T14 construct: not shown: M13 gene III fragment (residues 249-406), the display partner, and its junction to IGF-I
T14 chain: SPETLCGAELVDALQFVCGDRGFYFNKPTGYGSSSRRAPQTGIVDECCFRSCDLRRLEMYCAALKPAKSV

[15] = molecular target: T15, IGF-I E9A (G1S-A70V background) displayed on phage (human; bacteriophage M13)
T15 construct: not shown: M13 gene III fragment (residues 249-406, display carrier) and the IGF-g3 junction
T15 chain: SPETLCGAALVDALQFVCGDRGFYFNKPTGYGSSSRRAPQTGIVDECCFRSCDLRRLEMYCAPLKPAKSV

[16] = molecular target: T16, IGF-I T29A (G1S-A70V background) displayed on phage (human; bacteriophage M13)
T16 construct: not shown: Display carrier: M13 gene III protein fragment (residues 249-406) and the junction to it
T16 chain: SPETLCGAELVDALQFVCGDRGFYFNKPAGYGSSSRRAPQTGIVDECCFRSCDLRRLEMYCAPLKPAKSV

[17] = molecular target: T17, IGF-I G1S-A70V displayed on phage (fused to M13 gene III protein residues 249-406) (human; bacteriophage M13)
T17 construct: Monovalent display on M13 phagemid particles; template of the alanine scan; also called G1S-A70V IGF-I; wild-type-like IGF-I variant; not shown: Display carrier: M13 gene III protein fragment (residues 249-406) and the junction to it

[18] = molecular target: T18, IGF-I Y31A (G1S-A70V background) displayed on phage (human; bacteriophage M13)
T18 construct: not shown: Display carrier: M13 gene III protein fragment (residues 249-406) and the junction to it
T18 chain: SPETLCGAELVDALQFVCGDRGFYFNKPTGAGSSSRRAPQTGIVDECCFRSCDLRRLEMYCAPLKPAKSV

- relative IC50 (IC50mut/IC50 G1S-A70V) [1]: 2 fold
- relative IC50 (IC50mut/IC50 G1S-A70V) [2]: 1.5 fold
- relative IC50 (IC50mut/IC50 G1S-A70V) [3]: 1.4 fold
- relative IC50 (IC50mut/IC50 G1S-A70V) [4]: 0.6 fold
- relative IC50 (IC50mut/IC50 G1S-A70V) [5]: 1.3 fold
- relative IC50 (IC50mut/IC50 G1S-A70V) [6]: 1.6 fold
- relative IC50 (IC50mut/IC50 G1S-A70V) [7]: 0.6 fold
- relative IC50 (IC50mut/IC50 G1S-A70V) [8]: 0.6 fold
- relative IC50 (IC50mut/IC50 G1S-A70V) [9]: 1.1 fold
- relative IC50 (IC50mut/IC50 G1S-A70V) [10]: 1.1 fold
- relative IC50 (IC50mut/IC50 G1S-A70V) [11]: 2.7 fold
- relative IC50 (IC50mut/IC50 G1S-A70V) [12]: 1.1 fold
- relative IC50 (IC50mut/IC50 G1S-A70V) [13]: 1.3 fold
- relative IC50 (IC50mut/IC50 G1S-A70V) [14]: > 100 fold
- relative IC50 (IC50mut/IC50 G1S-A70V) [15]: 1 fold
- relative IC50 (IC50mut/IC50 G1S-A70V) [16]: 0.9 fold
- relative IC50 (IC50mut/IC50 G1S-A70V) [17]: 1 fold
- relative IC50 (IC50mut/IC50 G1S-A70V) [18]: 0.8 fold
B1: human IGFBP-1 (other, UniProt P08833 26-259, looked up)
chain: APWQCAPCSAEKLALCPPVSASCSEVTRSAGCGCCPMCALPLGAACGVATARCARGLSCRALPGEQQPLHALTRGQGACVQESDASAPHAAEAGSPESPESTEITEEELLDNFHLMAPSEEDHSILWDAISTYDGSKALHVTNIKKWKEPCRIELYRVVESLAKAQETSGEEISKFYLPNCNKNGFYHSRQCETSMDGEAGLCWCVYPWNGKRIPGSPEIRGDPNCQIYFNVQN
notes: Secreted recombinant protein
